Experiments:
Settings in all cases: protein: recombinant; tags: N-terminal TwinStrep-TEV on XRCC2, cleaved; copies: 1;1;1;1; label: 5'-FAM
B(R231A)CDX2 = target: T1, B(R231A)CDX2 (Homo sapiens, UniProt O15315;O43502;O75771;O43543 1-345;1-376;1-328;1-280, R231A); assay: fluorescence anisotropy; 1 mM ATP; similar to WT; FA: protein in 25 mM HEPES pH 7.5, 10% glycerol, 2.5 mM MgCl2, 0.25 mM TCEP, 150 mM NaCl mixed 1:1 with oligo in HMT buffer, 50 mM NaCl (final ~100 mM NaCl, 5%)
T1 sequence 1: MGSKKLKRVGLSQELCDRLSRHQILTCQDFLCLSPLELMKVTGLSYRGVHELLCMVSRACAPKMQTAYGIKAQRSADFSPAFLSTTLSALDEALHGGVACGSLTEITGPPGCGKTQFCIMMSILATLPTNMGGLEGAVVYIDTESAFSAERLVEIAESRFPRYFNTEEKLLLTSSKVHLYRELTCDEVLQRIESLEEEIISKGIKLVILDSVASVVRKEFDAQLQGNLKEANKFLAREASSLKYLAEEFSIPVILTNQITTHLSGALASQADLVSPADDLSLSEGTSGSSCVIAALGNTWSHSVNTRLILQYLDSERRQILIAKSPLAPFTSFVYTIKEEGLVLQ
T1 sequence 2: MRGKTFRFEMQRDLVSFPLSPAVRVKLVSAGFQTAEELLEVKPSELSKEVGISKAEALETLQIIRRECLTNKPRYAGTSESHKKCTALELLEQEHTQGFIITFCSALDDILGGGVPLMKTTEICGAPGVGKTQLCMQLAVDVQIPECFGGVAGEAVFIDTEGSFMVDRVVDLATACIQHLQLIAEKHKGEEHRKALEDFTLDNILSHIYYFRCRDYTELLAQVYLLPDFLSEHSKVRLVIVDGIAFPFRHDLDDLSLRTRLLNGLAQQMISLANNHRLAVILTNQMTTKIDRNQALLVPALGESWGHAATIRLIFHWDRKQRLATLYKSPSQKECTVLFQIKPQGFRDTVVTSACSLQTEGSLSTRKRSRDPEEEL
T1 sequence 3: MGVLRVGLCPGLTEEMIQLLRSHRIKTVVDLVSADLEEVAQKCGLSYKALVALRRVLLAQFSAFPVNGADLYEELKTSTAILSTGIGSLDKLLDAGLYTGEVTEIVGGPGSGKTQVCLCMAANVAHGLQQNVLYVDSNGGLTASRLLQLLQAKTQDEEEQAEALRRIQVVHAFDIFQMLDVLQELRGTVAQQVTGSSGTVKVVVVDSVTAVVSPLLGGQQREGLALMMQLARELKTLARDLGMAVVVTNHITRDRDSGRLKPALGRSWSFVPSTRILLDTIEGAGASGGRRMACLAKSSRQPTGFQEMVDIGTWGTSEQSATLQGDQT
T1 sequence 4: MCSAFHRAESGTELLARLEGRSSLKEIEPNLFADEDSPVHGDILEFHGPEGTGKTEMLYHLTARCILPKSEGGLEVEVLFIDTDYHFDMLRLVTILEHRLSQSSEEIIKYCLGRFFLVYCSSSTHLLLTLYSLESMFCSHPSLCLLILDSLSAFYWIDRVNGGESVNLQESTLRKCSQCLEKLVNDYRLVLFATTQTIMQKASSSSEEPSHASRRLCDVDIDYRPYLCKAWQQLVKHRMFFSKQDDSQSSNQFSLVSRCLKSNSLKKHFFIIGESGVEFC

B(R217A)CDX2 = target: T2, B(R217A)CDX2 (Homo sapiens, UniProt O15315;O43502;O75771;O43543 1-345;1-376;1-328;1-280, R217A); assay: as above
T2 sequence 1: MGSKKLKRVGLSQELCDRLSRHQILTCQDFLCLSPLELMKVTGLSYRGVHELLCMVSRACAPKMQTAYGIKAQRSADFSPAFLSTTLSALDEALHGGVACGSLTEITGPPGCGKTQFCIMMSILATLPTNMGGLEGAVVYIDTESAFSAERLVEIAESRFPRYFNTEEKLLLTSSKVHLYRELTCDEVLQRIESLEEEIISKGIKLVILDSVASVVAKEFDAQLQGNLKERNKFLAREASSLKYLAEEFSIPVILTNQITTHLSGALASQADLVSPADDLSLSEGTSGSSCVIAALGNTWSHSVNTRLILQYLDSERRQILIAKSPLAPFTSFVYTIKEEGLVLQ
T2 sequence 2: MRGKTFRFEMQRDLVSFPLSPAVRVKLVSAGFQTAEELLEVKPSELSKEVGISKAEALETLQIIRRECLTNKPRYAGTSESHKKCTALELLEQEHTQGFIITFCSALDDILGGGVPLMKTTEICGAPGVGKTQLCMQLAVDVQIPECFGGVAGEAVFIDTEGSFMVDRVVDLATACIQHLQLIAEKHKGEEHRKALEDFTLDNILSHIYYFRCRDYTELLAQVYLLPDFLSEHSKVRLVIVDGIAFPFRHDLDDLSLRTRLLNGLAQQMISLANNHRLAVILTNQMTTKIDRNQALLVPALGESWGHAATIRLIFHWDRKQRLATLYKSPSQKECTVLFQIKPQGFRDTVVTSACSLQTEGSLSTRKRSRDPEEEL
T2 sequence 3: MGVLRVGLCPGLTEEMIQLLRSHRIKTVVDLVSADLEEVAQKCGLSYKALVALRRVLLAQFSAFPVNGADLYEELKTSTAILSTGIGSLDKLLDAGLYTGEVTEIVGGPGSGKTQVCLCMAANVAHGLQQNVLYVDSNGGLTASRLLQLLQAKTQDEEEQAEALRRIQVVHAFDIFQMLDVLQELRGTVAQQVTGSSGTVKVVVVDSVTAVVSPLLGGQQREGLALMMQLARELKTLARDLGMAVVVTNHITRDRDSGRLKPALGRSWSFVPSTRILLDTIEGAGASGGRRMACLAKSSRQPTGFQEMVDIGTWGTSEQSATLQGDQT
T2 sequence 4: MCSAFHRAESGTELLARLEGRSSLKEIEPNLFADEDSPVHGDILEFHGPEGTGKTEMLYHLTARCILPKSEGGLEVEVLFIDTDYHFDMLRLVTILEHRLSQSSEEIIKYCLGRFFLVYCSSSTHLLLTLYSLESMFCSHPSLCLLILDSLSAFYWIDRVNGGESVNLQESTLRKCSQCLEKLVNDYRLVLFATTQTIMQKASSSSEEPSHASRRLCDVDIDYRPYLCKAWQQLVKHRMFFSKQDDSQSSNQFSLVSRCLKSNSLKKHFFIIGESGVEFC

BCD(R221A)X2 = target: T3, BCD(R221A)X2 (Homo sapiens, UniProt O15315;O43502;O75771;O43543 1-345;1-376;1-328;1-280, R221A); assay: fluorescence anisotropy; 1 mM ATP; minimal effect; FA: protein in 25 mM HEPES pH 7.5, 10% glycerol, 2.5 mM MgCl2, 0.25 mM TCEP, 150 mM NaCl mixed 1:1 with oligo in HMT buffer, 50 mM NaCl (final ~100 mM NaCl, 5%)
T3 sequence 1: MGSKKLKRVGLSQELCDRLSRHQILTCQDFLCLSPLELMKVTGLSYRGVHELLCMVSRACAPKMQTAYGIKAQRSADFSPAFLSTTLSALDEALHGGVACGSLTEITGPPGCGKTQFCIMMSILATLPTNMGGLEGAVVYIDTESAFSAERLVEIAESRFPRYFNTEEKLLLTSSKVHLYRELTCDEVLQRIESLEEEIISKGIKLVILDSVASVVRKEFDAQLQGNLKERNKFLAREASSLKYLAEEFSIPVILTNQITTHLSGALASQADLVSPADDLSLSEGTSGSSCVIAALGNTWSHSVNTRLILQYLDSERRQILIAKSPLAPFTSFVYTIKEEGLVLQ
T3 sequence 2: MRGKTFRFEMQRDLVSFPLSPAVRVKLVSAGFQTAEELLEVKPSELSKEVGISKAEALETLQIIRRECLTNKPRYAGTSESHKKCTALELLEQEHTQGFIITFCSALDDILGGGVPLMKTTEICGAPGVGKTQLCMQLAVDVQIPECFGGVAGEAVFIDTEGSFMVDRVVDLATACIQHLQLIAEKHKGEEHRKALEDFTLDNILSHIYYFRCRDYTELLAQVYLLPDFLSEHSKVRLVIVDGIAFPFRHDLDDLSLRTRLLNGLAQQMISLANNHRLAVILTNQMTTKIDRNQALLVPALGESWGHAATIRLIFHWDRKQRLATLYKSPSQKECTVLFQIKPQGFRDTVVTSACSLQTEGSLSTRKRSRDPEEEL
T3 sequence 3: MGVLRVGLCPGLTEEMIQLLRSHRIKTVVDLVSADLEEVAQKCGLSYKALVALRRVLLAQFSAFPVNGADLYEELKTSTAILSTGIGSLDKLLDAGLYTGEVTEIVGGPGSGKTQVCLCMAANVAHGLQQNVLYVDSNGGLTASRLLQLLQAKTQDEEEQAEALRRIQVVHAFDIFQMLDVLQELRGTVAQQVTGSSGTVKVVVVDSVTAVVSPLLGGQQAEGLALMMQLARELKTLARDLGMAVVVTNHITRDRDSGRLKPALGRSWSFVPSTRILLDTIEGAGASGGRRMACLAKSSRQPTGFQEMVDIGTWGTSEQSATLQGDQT
T3 sequence 4: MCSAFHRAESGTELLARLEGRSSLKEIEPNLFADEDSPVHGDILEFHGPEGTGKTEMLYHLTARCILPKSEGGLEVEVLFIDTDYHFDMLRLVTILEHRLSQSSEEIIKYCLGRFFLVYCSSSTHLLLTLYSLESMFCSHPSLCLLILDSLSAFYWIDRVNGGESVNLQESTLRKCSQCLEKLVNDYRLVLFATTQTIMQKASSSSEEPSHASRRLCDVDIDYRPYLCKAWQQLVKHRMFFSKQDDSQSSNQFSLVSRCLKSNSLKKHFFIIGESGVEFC

Measured: binding result

TATCGAATCCGTCTA (ssDNA) [FAM-dN15nt]
binds: all assays above

— paper PMC7614784, “Structure and function of the RAD51B-RAD51C-RAD51D-XRCC2 tumour suppressor” (Nature, 2023)
